Assays:
[1] = biological target: FMN-containing OdAu1aLOV (isolated LOV domain of Ochromonas danica Aureochrome1a) (Ochromonas danica); experiment: SEC; concentration-dependent analytical gel filtration of lit-state OdAu1aLOV, 200 to 10 μM (Figure S6); column illuminated with 450 nm LEDs
[2] = biological target: FMN-containing OdAu1aLOV (isolated LOV domain of Ochromonas danica Aureochrome1a) (Ochromonas danica); experiment: SEC; analytical gel filtration of OdAu1aLOV in the lit state (column illuminated with 450 nm LEDs); HEPES 20 mM pH 7.4, NaCl 100 mM, MgCl2 10 mM, TCEP 0.3 mM; 100 μM protein
[3] = biological target: T1, OdAu1abZIPLOV (Aureochrome1a bZIP-LOV), FMN cofactor (Ochromonas danica, UniProt C5NSW6); experiment: EMSA; lit state (450 nm); supershifted band, putative 2:1 complex; DNA binding buffer: 20 mM HEPES pH 7.4, 100 mM NaCl, 10 mM MgCl2, 1 mM TCEP; EMSA: 20 nM DNA, 10% glycerol, BSA, poly-dI-dC, at 4 C; SEC samples incubated 30 mi
[4] = biological target: T2, OdAu1abZIPLOV (Aureochrome1a bZIP-LOV), 5dFMN cofactor (Ochromonas danica, UniProt C5NSW6); experiment: EMSA; dark state; single shifted band, no supershift; DNA binding buffer: 20 mM HEPES pH 7.4, 100 mM NaCl, 10 mM MgCl2, 1 mM TCEP; EMSA: 20 nM DNA, 10% glycerol, BSA, poly-dI-dC, at 4 C; SEC samples incubated 30 mi
[5] = biological target: T1, OdAu1abZIPLOV (Aureochrome1a bZIP-LOV), …; experiment: size-exclusion chromatography; dark state, 50 uM protein; DNA binding buffer: 20 mM HEPES pH 7.4, 100 mM NaCl, 10 mM MgCl2, 1 mM TCEP; EMSA: 20 nM DNA, 10% glycerol, BSA, poly-dI-dC, at 4 C; SEC samples incubated 30 mi
[6] = biological target: T2, OdAu1abZIPLOV (Aureochrome1a bZIP-LOV), …; experiment: as above
[7] = biological target: T3, FMN-containing OdAu1a_(bZIPLOV) (bZIP and LOV domains of Ochromonas danica Aureochrome1a) (Ochromonas danica); experiment: SEC; analytical gel filtration of OdAu1a_(bZIPLOV) in the dark state (Figures S7-S9)
[8] = biological target: T3, FMN-containing OdAu1a_(bZIPLOV) (bZIP …); experiment: SEC; analytical gel filtration of OdAu1a_(bZIPLOV) in the lit state (450 nm LEDs; Figures S7-S9)
[9] = biological target: T4, 5dFMN-containing OdAu1a_(bZIPLOV) (bZIP and LOV domains of Ochromonas danica Aureochrome1a refolded with 5-deazaflavin mononucleotide) (Ochromonas danica); experiment: SEC; analytical gel filtration of OdAu1a_(bZIPLOV) in the dark state (Figures S7-S9)
[10] = biological target: T4, 5dFMN-containing OdAu1a_(bZIPLOV) (bZIP …); experiment: SEC; analytical gel filtration of OdAu1a_(bZIPLOV) in the lit state (450 nm LEDs; Figures S7-S9)

Question: With “FMN-containing OdAu1aLOV (isolated LOV domain of Ochromonas danica Aureochrome1a) (domain or fragment)” as the molecule, how does the stoichiometry N [1] read?
Answer: 2

Question: And the stoichiometry N [2]?
Answer: 2

B1: OdAu1a recognition DNA, TAMRA (dsDNA)
DNA 1: TGTAGCGTCTGACGTGGTTCCCAC
DNA 2: GTGGGAACCACGTCAGACGCTACA
Question: Does B1 bind [3]?
Answer: binds

Question: Does B1 bind [4]?
Answer: binds

B2: OdAu1a recognition DNA, 24 bp, unlabelled (dsDNA)
DNA 1: TGTAGCGTCTGACGTGGTTCCCAC
DNA 2: GTGGGAACCACGTCAGACGCTACA
Question: Which results are given for B2?
Answer: binding result [5]: binds; binding result [6]: binds

B3: FMN-containing OdAu1a_(bZIPLOV) (bZIP and LOV domains of Ochromonas danica Aureochrome1a) (domain or fragment)
chain: EEQKIERRERNREHAKRSRVRKKFLLESLQHSVRALEEENEKLRNAIRENLQGEAEQLLTRCSCGGPSVIASDPNTATRTLDDPDYSLVKALQTAQQNFVISDPSIPDNPIVYASQGFLTLTGYALSEVLGRNCRFLQGPETDPKAVEKVRKGLERGEDTTVVLLNYRKDGSTFWNQLFIAALRDGEGNVVNYLGVQCKVSEDYAKAFLKNEENEK
modifications: not checked
Question: B3 was tested. Which stoichiometry N [7] did it give?
Answer: 2

Question: What about the stoichiometry N [8] of the same molecule?
Answer: 2

B4: 5dFMN-containing OdAu1a_(bZIPLOV) (bZIP and LOV domains of Ochromonas danica Aureochrome1a refolded with 5-deazaflavin mononucleotide) (domain or fragment)
chain: EEQKIERRERNREHAKRSRVRKKFLLESLQHSVRALEEENEKLRNAIRENLQGEAEQLLTRCSCGGPSVIASDPNTATRTLDDPDYSLVKALQTAQQNFVISDPSIPDNPIVYASQGFLTLTGYALSEVLGRNCRFLQGPETDPKAVEKVRKGLERGEDTTVVLLNYRKDGSTFWNQLFIAALRDGEGNVVNYLGVQCKVSEDYAKAFLKNEENEK
modifications: not checked
Question: What does the source list for B4?
Answer: stoichiometry N [9]: 2; stoichiometry N [10]: 2

Reference: paper PMC7007005
